What all share (test): MST
The target in one series is T1, HiNmlR C54A/C71A/C95A (Haemophilus influenzae Rd KW20, UniProt P44558 1-135, C54A;C71A;C95A).
T1 sequence: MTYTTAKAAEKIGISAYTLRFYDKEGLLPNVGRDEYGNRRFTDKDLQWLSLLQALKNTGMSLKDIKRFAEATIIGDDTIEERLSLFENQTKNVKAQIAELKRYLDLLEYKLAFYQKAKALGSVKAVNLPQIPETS

A further series addresses T2, HiNmlR C54A (Haemophilus influenzae Rd KW20, UniProt P44558 1-135, C54A).
T2 sequence: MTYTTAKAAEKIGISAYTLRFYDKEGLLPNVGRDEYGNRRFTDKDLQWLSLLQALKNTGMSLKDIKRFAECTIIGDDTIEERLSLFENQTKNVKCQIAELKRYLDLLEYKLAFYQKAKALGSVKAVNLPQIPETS

The target in the next series is T3, HiNmlR C71A/C95A (Haemophilus influenzae Rd KW20, UniProt P44558 1-135, C71A;C95A).
T3 sequence: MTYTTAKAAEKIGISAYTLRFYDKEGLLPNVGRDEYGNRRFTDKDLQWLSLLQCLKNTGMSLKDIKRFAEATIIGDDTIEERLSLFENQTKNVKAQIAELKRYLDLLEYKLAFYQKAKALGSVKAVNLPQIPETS

The target of another series is T4, HiNmlR C54A/C95A (Haemophilus influenzae Rd KW20, UniProt P44558 1-135, C54A;C95A).
T4 sequence: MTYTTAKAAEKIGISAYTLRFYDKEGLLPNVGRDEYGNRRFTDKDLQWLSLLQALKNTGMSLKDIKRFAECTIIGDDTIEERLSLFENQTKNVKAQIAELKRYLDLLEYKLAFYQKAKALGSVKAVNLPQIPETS

In another series the target is T5, HiNmlR wild-type (Haemophilus influenzae Rd KW20, UniProt P44558 1-135).
T5 sequence: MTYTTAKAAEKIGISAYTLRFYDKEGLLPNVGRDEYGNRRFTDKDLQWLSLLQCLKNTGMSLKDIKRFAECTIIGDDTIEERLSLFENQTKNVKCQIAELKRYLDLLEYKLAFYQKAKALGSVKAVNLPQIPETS

B1: PadhC-estD/nmlR IR wt 24-bp (dsDNA)
DNA 1: CACTTTAGAGTTCACTCTAAAGCA
DNA 2: TGCTTTAGAGTGAACTCTAAAGTG
As to B1, the Kd is 55.3 ± 5.3 nM in the series with HiNmlR C54A/C71A/C95A; 91.1 ± 15.6 nM in the series with HiNmlR C54A; 33 ± 3.4 nM in the series with HiNmlR C71A/C95A; 47.4 ± 6.7 nM with HiNmlR C54A/C95A; 25.2 ± 2.3 nM with HiNmlR wild-type.

B2: G5'C/C5G 24-bp (dsDNA)
DNA 1: CACTTTACAGTTCACTGTAAAGCA
DNA 2: TGCTTTACAGTGAACTGTAAAGTG
Molecule B2 displayed a Kd in the series with HiNmlR wild-type of 4690 ± 311 nM.

B3: G5'C 24-bp (dsDNA)
DNA 1: CACTTTACAGTTCACTCTAAAGCA
DNA 2: TGCTTTAGAGTGAACTGTAAAGTG
B3 gave an equilibrium dissociation constant (Kd) with HiNmlR wild-type of 245 ± 26.1 nM.

B4: C5G 24-bp (dsDNA)
DNA 1: CACTTTAGAGTTCACTGTAAAGCA
DNA 2: TGCTTTACAGTGAACTCTAAAGTG
In the series with HiNmlR wild-type, B4 had a Kd of 252 ± 17.4 nM.

As usually defined, the Kd is the free concentration of one partner at which half of the binding sites on the other are occupied at equilibrium, for simple one-to-one binding.

For the origin of these results see paper PMC5001606.
